From patent publication US20140065154A1, “TLR3 BINDING AGENTS” (INNATE PHARMA, priority 2011, published 2014)
Entries after “also recorded” stand apart in the source; their conditions may differ.

Assays:
[1] = molecular target: T1, recombinant human TLR3 extracellular domain (R&D Systems) (human, UniProt O15455 27-711); assay: SPR (Biacore T100), rhTLR3 immobilised on CM5 chip, bivalent affinity, pH 5.6, mean of 2 or 3 experiments
T1 construct: also called rhTLR3; human rec TLR3; not shown: His tag (R&D #1487-TR)

[2] = molecular target: T1, recombinant human TLR3 extracellular …; assay: SPR (Biacore T100), rhTLR3 immobilised on CM5 chip, bivalent affinity, pH 7.2, mean of 2 or 3 experiments
Protocol: (a) General Biacore T100 methods. SPR measurements were performed on a Biacore T100 apparatus (Biacore GE Healthcare) at 25° C. In all Biacore experiments HBS-EP+ buffer (Biacore GE Healthcare) or 10 mM sodium acetate pH 5.6, 150 mM NaCl, 0.05% P20 served as running buffer and sensorgrams were analyzed with Biaevaluation 4.1 and Biacore T100 Evaluation software. Recombinant human and mouse TLR3 were purchased from R&D Systems. (b) Protein immobilization. Recombinant TLR3 protein was immobilized covalently to carboxyl groups in the dextran layer of a Biacore Series 5 Sensor Chip CM5 (chip). The chip surface was activated with EDC/NHS (0.2M N-ethyl-N′-(3-dimethylaminopropyl) carbodiimidehydrochloride, 0.05M N-hydroxysuccinimide (Biacore GE Healthcare)). […] Deactivation of the remaining activated groups was performed using 100 mM ethanolamine pH 8 (Biacore GE Healthcare). (c) Antibody binding analysis was run using HBS-EP+ (neutral pH). Antibodies at a concentration of 10 μg/ml were injected for 2 min at a constant flow rate of 10 μl/min over the immobilized proteins and allowed to dissociate for 3 min before regeneration by a ten second injection of 10 mM NaOH, 500 mM NaCl regeneration buffer. Blank correction was performed on line by co-injecting the soluble antibodies onto the reference dextran flow cell. (d) Competition assay in acidic buffer (pH 5.6). […]

[3] = molecular target: T2, TLR3 (Homo sapiens, UniProt O15455); assay: Myeloid DC (MdDC) secretion and expression inhibition test; type: cell-based; design: Myeloid DC (MdDC) were obtained from PBMC by isolating PBMC from normal healthy human donors; endogenous in cells; host or cells: human monocyte-derived DC (CD14+ monocytes cultured with GM-CSF and IL-4); settings: polyAU
Protocol: Myeloid DC (MdDC) were obtained from PBMC by isolating PBMC from normal healthy human donors. Monocytes were purified from PBMC using positive selection with human CD14 microbeads (Miltenyi Biotech) following general instructions. Monocytes were further derived into DC (MdDC) by 5-6 days incubation in human GM-CSF (Leucomax, SP) and human IL-4 (R&D Systems) at respectively 200 ng/ml and 20 ng/ml.
The resulting MdDC were then seeded at 10^6 cells/ml, in duplicate, in flat bottom 96-well plates. Cells were activated for 20 hours in a final volume of 200 μl, together with the anti-TLR3 antibodies at the indicated concentrations. Increasing amounts of polyAU were added to the wells to obtain a dose effect read-out at the dose and timepoint as indicated.
Supernatants were collected after 20 h of stimulation, frozen at −20° C., and further assayed for IL-6 and IP-10 using Enzyme-linked immunosorbent assay. Cells were then harvested, stained for activation markers CD86 (with a.huCD86 mouse, IgG1, FITC, BD Biosciences, ref 555657), with detection using FACSCanto™ flow cytometer (BD Biosciences).
Myeloid DC (MdDC) secretion inhibition test is performed according to the section titled Materials and Methods.

[4] = molecular target: T2, TLR3; assay: IP-10 production by donor PBMC in response to dsRNA and drug combinations; type: cell-based; settings: mAb 50 μg/ml
Protocol: IP-10 production was assessed in human donors in response to polyAU (IPH3102), believed to be a specific agonist of TLR3, or pIC, believed to be an agonist of TLR3 as well as other dsRNA receptors such as RIG-I and MDA-5. Fresh PBMC were isolated from whole blood of two independent donors. […] Cells were incubated 1 hr at 37° C. prior addition of 300 μg/ml IPH3102 or 30 μg/ml poly(I:C). Cells were incubated for 24 additional hours at 37° C. Supernatant were then harvested to quantify IP10 production by ELISA. Cells were then recovered, stained with 7-AAD and analyzed by flow cytometry (FACS) to evaluate potential toxic effects of any drugs.

[5] = molecular target: T2, TLR3; assay: SPR competition assay with polyAU in acidic buffer; type: binding; design: purchased R&D Systems; settings: pH 5.6
Protocol: (a) General Biacore T100 methods. SPR measurements were performed on a Biacore T100 apparatus (Biacore GE Healthcare) at 25° C. In all Biacore experiments HBS-EP+ buffer (Biacore GE Healthcare) or 10 mM sodium acetate pH 5.6, 150 mM NaCl, 0.05% P20 served as running buffer and sensorgrams were analyzed with Biaevaluation 4.1 and Biacore T100 Evaluation software. Recombinant human and mouse TLR3 were purchased from R&D Systems. (b) Protein immobilization. Recombinant TLR3 protein was immobilized covalently to carboxyl groups in the dextran layer of a Biacore Series 5 Sensor Chip CM5 (chip). The chip surface was activated with EDC/NHS (0.2M N-ethyl-N′-(3-dimethylaminopropyl) carbodiimidehydrochloride, 0.05M N-hydroxysuccinimide (Biacore GE Healthcare)). […] Deactivation of the remaining activated groups was performed using 100 mM ethanolamine pH 8 (Biacore GE Healthcare). (c) Antibody binding analysis was run using HBS-EP+ (neutral pH). Antibodies at a concentration of 10 μg/ml were injected for 2 min at a constant flow rate of 10 μl/min over the immobilized proteins and allowed to dissociate for 3 min before regeneration by a ten second injection of 10 mM NaOH, 500 mM NaCl regeneration buffer. Blank correction was performed on line by co-injecting the soluble antibodies onto the reference dextran flow cell. (d) Competition assay in acidic buffer (pH 5.6). Flow rate was set to 10 μl/min, the first antibody at a concentration of 50 μg/ml (or polyAU at 100 μg/ml) was injected for 2 min, 3 times successively in order to saturate the rhTLR3 surface. The second antibody (or polyAU at 100 μg/ml when the polyAU was added after first antibody) was then injected for 2 min also at 50 μg/ml and allowed to dissociate for 3 min before regeneration by a 15 second injection of 10 mM NaOH, 500 mM NaCl regeneration buffer. Blank correction was also performed on line and the curve using the saturating antibody (or neucleic acid) followed by an injection of buffer subtracted to remove the signal due to the dissociation of the first complex. The resulting signal was compared to that obtained by the injection of the second antibody directly onto the rhTLR3 surface.
Competition assays were conducted according to the methods described for SPR, item d) at pH 5.6.
Buffer (followed by polyAU) is represented in the lower line, while 31C3 followed by polyAU is in the upper line.

[6] = molecular target: T2, TLR3; assay: 293T-TLR3-ISRE luciferase reporter gene assay; type: cell-based; design: host or cells: 293T (ATCC #CRL-1573), stably carrying pISRE-luc; settings: dsRNA TLR3 agonist
Text: A reporter gene assay using as promoter ISRE (IFN-stimulated response element) and as reporter gene and protein luciferase was set up. A 293T cell line (ATCC, #CRL-1573) was stably transfected with pISRE-luc plasmid (#219089—Stratagene), further selected by cloning as inducing optimal response to IFN-alpha stimulation and referred to as control 293T-ISRE. This cell line was further stably transfected with pUNO-humanTLR3 plasmid (#puno-htlr3—InVivogen) or pUNO-mouseTLR3 plasmid (#puno-mtlr3—InVivogen) and referred to as 293T-TLR3-ISRE and 293T-mTLR3-ISRE respectively. On day 0, cells are seeded at 4×10^5 cells/mL in complete culture medium in 96-well culture plate (100 μl/well). Cells are first incubated at 37° C. for 20 hours, then 50 μL of medium are discarded and cells are activated with 100 μL/well final of increasing amounts of polyAU together with various concentrations of anti-TLR3 antibodies. Cells incubated with fresh medium will be used as background luciferase activity. Cells are incubated at 37° C. for 6 hours. 100 μL of freshly thawed Steady Glo (Promega) are added to each well, plates were incubated 10 min at RT in the dark and the light emitted in each well is quantified as Count Per Second (CPS) on a gamma-counter (TopCount) apparatus.
Antibodies were tested for inhibition of TLR3 signaling in a luciferase based reporter gene activity (293T-TLR3-ISRE). […] Briefly, dsRNA TLR3 agonists were used to induce TLR3 signaling in the reporter assay in the presence of anti-TLR3 antibodies, and TLR3 signaling was assessed.
In a further set of experiments, 293-huTLR3 cells were incubated with different concentrations of the anti-TLR3 mAbs for 1 to 2 hours (see FIG. 1A; mAb concentration is represented in axis in μg/ml on a logarithmic scale) followed by the addition to the medium of the TLR3 agonist polyAU at a concentration of 300 μg/ml. Luciferase expression was measured after 6 h. […]
Similarly the kinetics of inhibition of the antibodies was evaluated in 293T-TLR3 luciferase assay. […] Luciferase expression was measured at 6 h post poly(A:U) addition. […]

[7] = molecular target: T2, TLR3; assay: SPR (Biacore) bivalent affinity on immobilized TLR3; type: binding; design: purchased R&D Systems; settings: neutral pH; own vs commercially available antibodies
Protocol: (a) General Biacore T100 methods. SPR measurements were performed on a Biacore T100 apparatus (Biacore GE Healthcare) at 25° C. In all Biacore experiments HBS-EP+ buffer (Biacore GE Healthcare) or 10 mM sodium acetate pH 5.6, 150 mM NaCl, 0.05% P20 served as running buffer and sensorgrams were analyzed with Biaevaluation 4.1 and Biacore T100 Evaluation software. Recombinant human and mouse TLR3 were purchased from R&D Systems. (b) Protein immobilization. Recombinant TLR3 protein was immobilized covalently to carboxyl groups in the dextran layer of a Biacore Series 5 Sensor Chip CM5 (chip). The chip surface was activated with EDC/NHS (0.2M N-ethyl-N′-(3-dimethylaminopropyl) carbodiimidehydrochloride, 0.05M N-hydroxysuccinimide (Biacore GE Healthcare)). […] Deactivation of the remaining activated groups was performed using 100 mM ethanolamine pH 8 (Biacore GE Healthcare). (c) Antibody binding analysis was run using HBS-EP+ (neutral pH). Antibodies at a concentration of 10 μg/ml were injected for 2 min at a constant flow rate of 10 μl/min over the immobilized proteins and allowed to dissociate for 3 min before regeneration by a ten second injection of 10 mM NaOH, 500 mM NaCl regeneration buffer. […]
Binding to TLR3 was determined at neutral (pH 7.2) and acid (pH 5.6) conditions, and KD values were calculated. […]

| Molecule | Kd [1] | Kd [2] | TLR3-mediated CD83/CD86 expression [3] | TLR3-mediated cytokine/chemokine secretion (IP-10, IL-6) [3] | IP-10 production in response to polyAU ([4]; donor 2, IPH3102 300 μg/ml) | IP-10 production in response to polyIC ([4]; donors 1 and 2, poly(I:C) 30 μg/ml) | antibody binding to TLR3 chip previously incubated with polyAU [5] | inhibition of TLR3 signaling [6] | binding affinity for TLR3 compared [7] |
| --- | --- | --- | --- | --- | --- | --- | --- | --- | --- |
| antibody 29H3 (antibody, V domains shown, also called 29H3.7; CNCM I-4187) VH: DVQLQESGPDLVKPSQSLSLTCTVTGYSITSGYSWHWIRQFLGNKLEWMGYIHYSGITNYNPSLRSRISFTRDTSKNQFFLQLNSVTTEDTATYYCARDGYYGMDYWGQGTSVTVS VL: DIVMTQSQKFMSTSVGDRVSITCKASQNVRTSVAWYQQKPGQSPKALIYLASNRHTGVPDRFTGSGSGTDFTLTVSNIQSEDLADYFCLQHWNYPYTFGGGTKLEIK | 0.011 nM | 0.0474 nM | effectively downregulated TLR3-mediated CD83/CD86 expression | abrogated TLR3-mediated cytokine/chemokine secretion, to a similar extent as full length antibodies |  |  |  |  |  |
| 34A3: anti-human TLR3 monoclonal antibody; VH SEQ ID NO: 34, VL SEQ ID NO: 35 (antibody, listed as Mus musculus, V domains shown, SIGNAL (1)..(19); SIGNAL (1)..(22)) VH: MEWRWIFLFLLSGTTGVHSEIQLQQSGPELVKPGASVKVSCKASGYVFTTYSIYWVKQSHGKSLEWIGYIDPYNGDTSYNQKFKGKATLTVDKSSSTAYMHLNSLTSEDSTVYYCAREGNYYGYFDYWGQGTTLTVS VL: MDFQVQIFSFLLMSASVIMSRGQIVLTQSPALMSASPGEKVTMTCSASSSVSYMFWYQQKPRSSPKPWIYLTSNLASGVPARFSGSGSGTSYSLTISSMEAEDAATYYCQQWTGNPPTFGGGTKLEIK |  |  |  |  | substantially reduce IP-10 production | substantially reduce IP-10 production | able to bind TLR3 even in the presence of polyAU | strongly inhibited TLR3 signaling in a dose dependent fashion; also recorded: enhanced inhibition effect at low concentrations |  |
| 29H3: anti-human TLR3 monoclonal antibody, IgG1; VH SEQ ID NO: 10, VL SEQ ID NO: 11; CNCM I-4187 (antibody, listed as Mus musculus, V domains shown, SIGNAL (1)..(18); SIGNAL (1)..(20), anti-human TLR3 monoclonal antibody, IgG1; CNCM I-4187) VH: MRVLILLCLFTAFPGILSDVQLQESGPDLVKPSQSLSLTCTVTGYSITSGYSWHWIRQFLGNKLEWMGYIHYSGITNYNPSLRSRISFTRDTSKNQFFLQLNSVTTEDTATYYCARDGYYGMDYWGQGTSVTVS VL: MDFQTQVFVFVLLWLSGVDGDIVMTQSQKFMSTSVGDRVSITCKASQNVRTSVAWYQQKPGQSPKALIYLASNRHTGVPDRFTGSGSGTDFTLTVSNIQSEDLADYFCLQHWNYPYTFGGGTKLEIK |  |  | effectively downregulated TLR3-mediated CD83/CD86 expression | abrogated TLR3-mediated cytokine/chemokine secretion |  |  | able to bind TLR3 even in the presence of polyAU |  | significantly better |
